The source of these data is US20250270301A1 (GEN2 NEUROSCIENCE, published 2025).

One may read the Kd as a measure of binding affinity in units of concentration. One may read the koff as the first-order rate constant of dissociation. As usually defined, the kon is the rate constant with which the complex forms.

Positions count from the first letter of the chain named. Where two headings read alike, the source gives them in different places.

For assay [1], the target named is T1, full length recombinant human 2N4R tau (human, UniProt P10636 1-758).
T1 construct: bought from rPeptide; pHrodo Red maleimide-labelled where it stands in uptake assays; also called tau1-441; full length tau
T1 sequence (P10636 other isoform, or with tags, fused parts or gaps limits assumed): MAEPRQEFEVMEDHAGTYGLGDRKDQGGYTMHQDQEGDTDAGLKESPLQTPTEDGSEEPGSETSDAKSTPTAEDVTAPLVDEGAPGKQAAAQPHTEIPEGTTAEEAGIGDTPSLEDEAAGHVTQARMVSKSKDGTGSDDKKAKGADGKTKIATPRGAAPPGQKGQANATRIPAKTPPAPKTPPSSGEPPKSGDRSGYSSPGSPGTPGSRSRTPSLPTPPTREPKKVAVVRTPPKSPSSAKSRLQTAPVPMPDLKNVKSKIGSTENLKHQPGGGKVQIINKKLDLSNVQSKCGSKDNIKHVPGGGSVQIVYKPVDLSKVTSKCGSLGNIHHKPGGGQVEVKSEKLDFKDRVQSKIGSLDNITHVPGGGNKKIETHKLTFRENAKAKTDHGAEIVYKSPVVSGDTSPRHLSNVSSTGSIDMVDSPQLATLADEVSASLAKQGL
Briefly: SPR SCK, IgG on Protein A, tau in flow.

The target in assay [2] is T1, full length recombinant human 2N4R tau. As to the kind of experiment: SPR SCK, IgG on Protein A, tau in flow. An outline of the steps: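 Antibodies were captured to ~50 RU on a Protein A chip in HBS-EP+ with 1 mg/mL BSA at 25 °C. Tau was injected by single-cycle kinetics at 1.25–10 nM (2-fold), with 60 s association and 200 s dissociation. Signals were referenced to a mock-immobilized cell.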
This is another data set of the same source.

Assay [3] addresses T2, Bovine serum albumin (bovine, UniProt P02769 25-607).
T2 construct: also called BSA
As to the kind of experiment: ELISA on 1% BSA, HEK supernatant, anti-human IgG-HRP, n=1. An outline of the steps:
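Wells coated with antigen, blocked 1 h RT in 5% milk/TBS; HEK293 transient-transfection supernatants applied at 1:100 in 1% BSA/TBS for 1 h RT. Bound hIgG1 detected with anti-human IgG-HRP (1:2000), TMB 15 min, acid stop, OD450; single replicate.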
(In general: In an ELISA, binding on a coated surface is turned into a signal by an enzyme label.)

Assay [4] has as its target T1, full length recombinant human 2N4R tau. As to the kind of experiment: SPR MCK, IgG on Protein A, tau in flow. The procedure: Slight variations in RMAX are considered likely to be due to differences in ligand capture and not reflective of significant variation in antibody binding characteristics.
22.2 Assessment of antibody binding to tau (Biacore MCK analysis): Binding of anti-tau hIgG1 to full length recombinant 2N4R tau (Rpeptide; SEQ ID NO: 2) was assessed using the Biacore T200 (GE Healthcare, Chicago, IL, USA) running Biacore T200 Evaluation Software V2.0.1. hIgG1 were immobilised on a Protein A capture sensor chip in running buffer (HBS-EP+ buffer containing 1 mg/mL BSA) at 25° C., captured to ˜50 RU at […]. For multi-cycle kinetics experiments, recombinant 2N4R tau was flowed at concentrations ranging from 0.39 nM to 12.5 nM in running buffer at 40 μL/min, with an association time of 60 s and a dissociation time of 200 s. Curves were compared to a reference cell that was mock immobilized (no antibody present).

Assay [5] has the same target. Briefly: SPR MCK, IgG on Protein A, tau in flow at 100 µL/min.
The target of assay [6] is monomeric P301S 2N4R tau, pHrodo-labelled (human, UniProt P10636 1-758, pHrodo Red maleimide label). As to the kind of experiment: cell-based or functional assay.
Sequence of monomeric P301S 2N4R tau, pHrodo-labelled (P10636 other isoform, or with tags, fused parts or gaps P301S P301S): as the sequence (P10636 other isoform, or with tags, fused parts or gaps limits assumed) above, with P301S counted along it
For assay [7], the target named is aggregated (oligomeric) P301S 2N4R tau, pHrodo-labelled (human, UniProt P10636 1-758, pHrodo Red maleimide label). Briefly: cell-based or functional assay.
Sequence of aggregated (oligomeric) P301S 2N4R tau, pHrodo-labelled (P10636 other isoform, or with tags, fused parts or gaps P301S P301S): as the sequence (P10636 other isoform, or with tags, fused parts or gaps limits assumed) above, with P301S counted along it
For assay [8], the target named is T2, Bovine serum albumin. As to the kind of experiment: ELISA on 1% BSA, HEK supernatant, anti-human IgG-HRP, n=1. This is another data set of the same source.

T2 sequence (P02769 25-607 limits assumed): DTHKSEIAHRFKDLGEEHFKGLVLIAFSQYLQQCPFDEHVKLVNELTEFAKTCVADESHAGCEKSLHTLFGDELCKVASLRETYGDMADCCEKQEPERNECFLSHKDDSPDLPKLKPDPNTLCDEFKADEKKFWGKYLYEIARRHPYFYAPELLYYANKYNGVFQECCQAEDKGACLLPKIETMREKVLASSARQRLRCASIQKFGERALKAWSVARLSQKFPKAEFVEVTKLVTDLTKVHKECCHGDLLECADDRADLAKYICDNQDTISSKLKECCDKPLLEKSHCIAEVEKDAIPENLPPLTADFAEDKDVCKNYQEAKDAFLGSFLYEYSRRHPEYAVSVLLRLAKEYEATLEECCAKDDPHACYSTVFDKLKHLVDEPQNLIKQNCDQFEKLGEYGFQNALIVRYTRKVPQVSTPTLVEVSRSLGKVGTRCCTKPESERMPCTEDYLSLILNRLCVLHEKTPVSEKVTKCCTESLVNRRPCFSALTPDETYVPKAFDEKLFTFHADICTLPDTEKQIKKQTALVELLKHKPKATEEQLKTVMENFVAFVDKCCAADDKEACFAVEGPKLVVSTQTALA

B1: #44_VH4VK4 humanised hIgG1 (antibody, V domains shown)
VH: QVQLQESGPGLVKPSETLSLTCTVSGIDLSSYAMAWVRQAPGKGLEWIGCIDRRGGTFYASWVKGRFTISKDTSKTTVDLQMTSLTAEDTATYFCARDSGAFDPWGQGTLVTVSS
VL: DIQMTQSPSSLSASVGDRVTITCQASQSVYDNYLAWYQQKPGQPPKLLIHAASNLASGVPSRFSGSGSGTEFTLTISSLQPDDFATYYCLGEFSCTTTDCNVFGGGTKVEIK
notes: also called VH4Vκ4; pVH/pVL
For B1, in assay [1], the “Fold change (KD, to pVH/pVL)” value was 1; the Kd was determined as 6.58 nM; the koff turned out to be 0.012 s⁻¹; the kon was 1.82e+06 M⁻¹ s⁻¹. In assay [2], the Kd is 8.12 nM, the “Relative KD (to VH0VK0)” value came out at 2.12, the koff is 0.0294 s⁻¹ and the kon was found to be 3.61e+06 M⁻¹ s⁻¹. For the same molecule, the binding result with Bovine serum albumin [3] is “no binding (tested: supernatant 1:100)”. Also, in assay [4], the Kd was determined as 5.84 nM, the “Relative KD (to VH0VK0)” value was 1.8, the koff came to 0.0316 s⁻¹ and the kon amounted to 5.41e+06 M⁻¹ s⁻¹. Moreover, in assay [5], the “Fold improvement (KD, to pVH/pVL)” value stood at 1; the Kd was found to be 7.76 nM; the koff stood at 0.0147 s⁻¹; the kon was found to be 1.89e+06 M⁻¹ s⁻¹. Also, in assay [6], the “increase of monomeric tau uptake into human iPSC-derived microglia” value turned out to be 59.4%, the “inhibition of monomeric tau uptake into human astrocytes” value worked out at 52.3% and the “inhibition of monomeric tau uptake into human iPSC-derived astrocytes” value came to 94.1%. Further, in assay [7], the “increase of aggregated tau uptake into human iPSC-derived microglia” value was 115%, the “inhibition of aggregated tau uptake into human astrocytes” value came to 41.3% and the “inhibition of aggregated tau uptake into human iPSC-derived astrocytes” value is 61.9%.

B2: #44_VH4VK4 pVH/L2 (antibody, V domains shown)
VH: B1 VH
VL: DIQMTQSPSSLSASVGDRVTITCQASQSVYDNYLAWYQQKPGQPPKLLIHAASNLASGVPSRFSGSGSGTEFTLTISSLQPDDFATYYCLGEFSCQDTDCNVFGGGTKVEIKR
notes: also called Clone VK4_L2; #44_VK4_L2
Take B2: in assay [1], the “Fold change (KD, to pVH/pVL)” value was 0.89 and the Kd was 7.38 nM. For the same molecule, in the assay with Bovine serum albumin [8], the binding result is “no binding (tested: 30 ng/ml (legend 1:100))”.

B3: #44_VH4VK4_H14/pVL (antibody, V domains shown)
VH: B1 VH with C50A, R53S, R54A, G56S, F67S
VL: B1 VL
notes: also called Clone VH4_H14; #44_VH4_H14
In the case of B3, in assay [1], the “Fold change (KD, to pVH/pVL)” value is 1.03 and the Kd stood at 6.37 nM. For the same molecule, the binding result with Bovine serum albumin [8] is given as “no binding (tested: 30 ng/ml (legend 1:100))”.

B4: #44_VH4VK4_H18/pVL (antibody, V domains shown)
VH: B1 VH with C50A, R53A, R54G, G56N
VL: B1 VL
notes: also called Clone VH4_H18; #44_VH4_H18
As for B4, in assay [1], the “Fold change (KD, to pVH/pVL)” value is 0.19; the Kd is 34.2 nM; the koff worked out at 0.00983 s⁻¹; the kon was determined as 287000 M⁻¹ s⁻¹. Also, the binding result in the assay with Bovine serum albumin [8] was “no binding (tested: 30 ng/ml (legend 1:100))”.

B5: #44_VH4VK4_H20/pVL (antibody, V domains shown)
VH: B1 VH with C50A, R53S, G56S
VL: B1 VL
notes: also called Clone VH4_H20; #44_VH4_H20
Take B5: in assay [1], the “Fold change (KD, to pVH/pVL)” value is 0.75; the Kd amounted to 8.78 nM; the koff worked out at 0.0404 s⁻¹; the kon was determined as 4.6e+06 M⁻¹ s⁻¹. Also, the binding result with Bovine serum albumin [8] is reported as “no binding (tested: 30 ng/ml (legend 1:100))”.

B6: #44_VH4VK4_H16/pVL (antibody, V domains shown)
VH: B1 VH with C50A, R54A, G56N
VL: B1 VL
notes: also called Clone VH4_H16; #44_VH4_H16
As to B6, in assay [1], the “Fold change (KD, to pVH/pVL)” value was found to be 0.69 and the Kd was 9.51 nM. Moreover, in the assay with Bovine serum albumin [8], the binding result was “no binding (tested: 30 ng/ml (legend 1:100))”.

B7: #44_VH4VK4_H17/pVL (antibody, V domains shown)
VH: B1 VH with C50A, R54V, G56N
VL: B1 VL
notes: also called Clone VH4_H17; #44_VH4_H17
For the molecule B7, in assay [1], the “Fold change (KD, to pVH/pVL)” value was 1.03; the Kd was found to be 6.36 nM; the koff was determined as 0.306 s⁻¹; the kon is 4.81e+07 M⁻¹ s⁻¹. In the assay with Bovine serum albumin [8], the binding result is listed as “no binding (tested: 30 ng/ml (legend 1:100))”.

B8: #44_VH4VK4_H15/pVL (antibody, V domains shown)
VH: B1 VH with C50A, R53S, R54V, G56N
VL: B1 VL
notes: also called Clone VH4_H15; #44_VH4_H15
As to B8, in assay [1], the “Fold change (KD, to pVH/pVL)” value came to 0.75; the Kd was 8.76 nM; the koff amounted to 0.0361 s⁻¹; the kon came to 4.12e+06 M⁻¹ s⁻¹. Besides, the binding result in the assay with Bovine serum albumin [8] was “no binding (tested: 30 ng/ml (legend 1:100))”.

B9: #44_VH4VK4_H01/pVL (antibody, V domains shown)
VH: B1 VH with S99V, A101S, P104V
VL: B1 VL
notes: also called Clone VH4_H01; #44_VH4_H01
For B9, in assay [1], the “Fold change (KD, to pVH/pVL)” value worked out at 2.43; the Kd turned out to be 2.71 nM; the koff worked out at 0.00805 s⁻¹; the on-rate constant (kon) is 2.97e+06 M⁻¹ s⁻¹. In addition, in the assay with Bovine serum albumin [8], the binding result was “no binding (tested: 30 ng/ml (legend 1:100))”. Moreover, in assay [5], the “Fold improvement (KD, to pVH/pVL)” value turned out to be 1.9; the Kd amounted to 4.01 nM; the koff stood at 0.00957 s⁻¹; the kon was determined as 2.39e+06 M⁻¹ s⁻¹. Moreover, in assay [6], the “inhibition of monomeric tau uptake into human astrocytes” value turned out to be 67.5% and the “inhibition of monomeric tau uptake into human iPSC-derived neurons” value stood at 89.2%. Further, in assay [7], the “inhibition of aggregated tau uptake into human astrocytes” value came to 38.6% and the “inhibition of aggregated tau uptake into human iPSC-derived neurons” value came out at 61.1%.

B10: #44_VH4VK4_H02/pVL (antibody, V domains shown)
VH: B1 VH with S99R, A101D, P104V
VL: B1 VL
notes: also called Clone VH4_H02; #44_VH4_H02
As for B10, in assay [1], the “Fold change (KD, to pVH/pVL)” value was found to be 5.62; the Kd is 1.17 nM; the koff came out at 0.00324 s⁻¹; the kon worked out at 2.78e+06 M⁻¹ s⁻¹. Moreover, the binding result with Bovine serum albumin [8] is given as “no binding (tested: 30 ng/ml (legend 1:100))”. Moreover, in assay [5], the “Fold improvement (KD, to pVH/pVL)” value came out at 5.1; the Kd came out at 1.52 nM; the koff amounted to 0.0037 s⁻¹; the kon amounted to 2.43e+06 M⁻¹ s⁻¹. In assay [6], the “inhibition of monomeric tau uptake into human astrocytes” value worked out at 64.7% and the “inhibition of monomeric tau uptake into human iPSC-derived neurons” value came to 84.1%. In assay [7], the “inhibition of aggregated tau uptake into human astrocytes” value came to 43.3% and the “inhibition of aggregated tau uptake into human iPSC-derived neurons” value came to 59.2%.

B11: #44_VH4VK4_H13/pVL (antibody, V domains shown)
VH: B1 VH with C50A, R53S, R54A, G56N
VL: B1 VL
notes: also called Clone VH4_H13; #44_VH4_H13
On to B11, for which, in assay [1], the “Fold change (KD, to pVH/pVL)” value worked out at 0.38; the Kd turned out to be 17.3 nM; the koff worked out at 0.0148 s⁻¹; the kon amounted to 855000 M⁻¹ s⁻¹. Further, the binding result with Bovine serum albumin [8] is reported as “no binding (tested: 30 ng/ml (legend 1:100))”.

B12: #44_VH4VK4_H12/pVL (antibody, V domains shown)
VH: B1 VH with C50A, R53A, G56S
VL: B1 VL
notes: also called Clone VH4_H12; #44_VH4_H12
For B12, in assay [1], the “Fold change (KD, to pVH/pVL)” value amounted to 1.09; the Kd amounted to 6.04 nM; the koff stood at 0.251 s⁻¹; the kon was 4.16e+07 M⁻¹ s⁻¹. Further, the binding result with Bovine serum albumin [8] was “no binding (tested: 30 ng/ml (legend 1:100))”.

B13: #44_VH4VK4_H19/pVL (antibody, V domains shown)
VH: B1 VH with C50A, R53S, G56A
VL: B1 VL
notes: also called Clone VH4_H19; #44_VH4_H19
As for B13, in assay [1], the “Fold change (KD, to pVH/pVL)” value is 0.68; the Kd is 9.72 nM; the koff was determined as 0.0122 s⁻¹; the kon came out at 1.26e+06 M⁻¹ s⁻¹. Moreover, in the assay with Bovine serum albumin [8], the binding result was “no binding (tested: 30 ng/ml (legend 1:100))”.
